Measured values: article PMC4122463, “Application of Two Newly Identified and Characterized Feruloyl Esterases from Streptomyces sp. in the Enzymatic Production of Ferulic Acid from Agricultural Biomass” (PLoS ONE, 2014)

Key:
Type in all cases: biochemical, Streptomyces cinnamoneus
purified protein = substrate: CCCC(=O)Oc1ccc([N+](=O)[O-])cc1; assay: purified protein; conditions: general esterase assay
[1] = substrate: COC(=O)/C=C/c1ccc(O)cc1; assay: HPLC of released phenolic acid; conditions: 50 mM Tris maleate, 40 °C, 30 min
Description: (§1) HPLC of released phenolic acid on R43

[2] = substrate: COC(=O)/C=C/c1cc(OC)c(O)c(OC)c1; assay: HPLC of released phenolic acid; conditions: 50 mM Tris maleate, 40 °C, 30 min
Description: as §1

[3] = substrate: COC(=O)/C=C/c1ccc(O)c(O)c1; assay: HPLC of released phenolic acid; conditions: 50 mM Tris maleate, 40 °C, 30 min
Description: as §1

[4] = substrate: COC(=O)/C=C/c1ccc(O)c(OC)c1; assay: HPLC of released phenolic acid; conditions: 50 mM Tris maleate, 40 °C, 30 min
Description: as §1

[5] = substrate: CCOC(=O)/C=C/c1ccc(O)c(OC)c1; assay: HPLC of released phenolic acid; conditions: 50 mM Tris maleate, 40 °C, 30 min
Description: as §1

[6] = substrate: COC(=O)/C=C/c1ccc(O)cc1; assay: HPLC of released phenolic acid; conditions: 50 mM Tris maleate, 50 °C, 30 min
Description: (§2) HPLC of released phenolic acid on R18

[7] = substrate: COC(=O)/C=C/c1cc(OC)c(O)c(OC)c1; assay: HPLC of released phenolic acid; conditions: 50 mM Tris maleate, 50 °C, 30 min
Description: as §2

[8] = substrate: COC(=O)/C=C/c1ccc(O)c(O)c1; assay: HPLC of released phenolic acid; conditions: 50 mM Tris maleate, 50 °C, 30 min
Description: as §2

[9] = substrate: COC(=O)/C=C/c1ccc(O)c(OC)c1; assay: HPLC of released phenolic acid; conditions: 50 mM Tris maleate, 50 °C, 30 min
Description: as §2

[10] = substrate: CCOC(=O)/C=C/c1ccc(O)c(OC)c1; assay: HPLC of released phenolic acid; conditions: 50 mM Tris maleate, 50 °C, 30 min
Description: as §2

B1: R43 (Streptomyces cinnamoneus) (protein)
chain: MEIRTAQGIVRGELTAGGLAVFRGVPYARPPVGNLRFAAPQPPLPWDGVRDALAFGPPPPQSGPARVPGDPAGTDWLTLNVWTPDPGGSGLPVLVWIPGGAYVSGAAGDPLYDAALLAGQGGLVVVTLNYRLGAEGFAHLPGVPDNRGLLDQLAALDWVRQNIARFGGNPDRVTLCGQSAGAGSIATLLAAPRAAGLFRRAITQSVPGLYATCALAADVTADLAARLGTTPTTAGLAAVSPQRLADAIDPLMEELPARIDRWGRLARSGVPFLPVVDGDVVPDVPWRSLRDGRASETDLLTGHTRDEFRPFLMLSGHPEKITDEDATAALRALAPAPDGERAYRAAHPDASPAALFELLYSDVLFRMPSLHLADAHSAGGGTAHLYELCLSAPALGGALGAAHGLDVSLLFGTYSAPAARLFYGEEPPPEDVLALGDDIRRSWASFAAHGDPGWPAYRVTDGRLTGLLDTGTGAGPYPEDASRRIWEGHGVEPFDLV
notes: full length, no signal peptide, secreted from Streptomyces expression host (pTONA vector); 498 aa; about 52 kDa; N-terminus at residue 1; monomer; powdered enzyme
Question: How did the Km (purified protein) turn out when B1 was run?
Answer: 0.17 ± 0.05 mM

Question: And the Vmax (purified protein)?
Answer: 0.00056 µmol/min/mg

Question: What about the Km [1] of the same protein?
Answer: 3.00 ± 0.26 mM

Question: And the Vmax [1]?
Answer: 0.00817 µmol/min/mg

Question: And the Km [2]?
Answer: 0.54 ± 0.07 mM

Question: And the Vmax [2]?
Answer: 0.00104 µmol/min/mg

Question: What about the Km [3] of the same protein?
Answer: 2.61 ± 0.25 mM

Question: And the Vmax [3]?
Answer: 0.0021 µmol/min/mg

Question: What about the Km [4] of the same protein?
Answer: 4.41 ± 0.36 mM

Question: What about the Vmax [4] of the same protein?
Answer: 0.042 µmol/min/mg

Question: What about the Km [5] of the same protein?
Answer: 1.96 ± 0.14 mM

Question: What about the Vmax [5] of the same protein?
Answer: 0.0153 µmol/min/mg

B2: R18 (Streptomyces cinnamoneus) (protein)
chain: ATAGQEVPAPATRIPLGTKTLHLVDASRQDPWKPSAGNRELMVTLWYPSLPSREPAAPYVSKPLSRAVLGNDVLAGVRTHAVAGARPAPVPRPLVVLSPGFGMSRITLTALGEDLASRGYAVAAVDHTYEAPVEFPGGRIEKCTLCDDSRMDPGAVVRNRAKDLRFVLDRLTGPGSELRVDARRIGVAGHSIGGASAVEVMREDRRVDAAINLDGNFFTEPPAEGLNKPVLLLGARRSGLPEPQENWERAWKQLTGWKRWLDVPAGGHMTFTDVPWIVDRFGMPGQIPPEQVEGQLGTVSAARATAVTRNYVAAFFDRHLRGRPSPLLDRPSSAHPEVTFMK
notes: secreted from Streptomyces expression host (pTONA vector), signal peptide removed; mature N-terminus at residue 42 of 383; about 38 kDa; monomer; powdered enzyme
Question: Which results are given for B2?
Answer: Km [6]: 4.31 ± 0.26 mM; Vmax [6]: 0.0262 µmol/min/mg; Km [7]: 9.39 ± 1.43 mM; Vmax [7]: 0.0367 µmol/min/mg; Km [8]: 3.31 ± 0.31 mM; Vmax [8]: 0.00752 µmol/min/mg; Km [9]: 4.99 ± 1.72 mM; Vmax [9]: 0.0523 µmol/min/mg; Km [10]: 4.28 ± 0.36 mM; Vmax [10]: 0.0406 µmol/min/mg
